Assay results reported in patent US20140329706A1, “AFFINITY TAGS, AND RELATED AFFINITY LIGANDS, ENGINEERED PROTEINS, MODIFIED SUPPORTS, COMPOSITIONS, METHODS AND SYSTEMS” (CALIFORNIA INSTITUTE OF TECHNOLOGY, priority 2013, published 2014).

Molecular target: T1, PSD-95 PDZ1-PDZ2 (Mus musculus, UniProt Q62108)
T1 construct: HaloTag-PDZ1+PDZ2 fusion protein (residues 61 to 249 of Mus musculus PSD-95); HaloTag (N); made in house
Assay: Binding of cypin to PSD-95 PDZ1-PDZ2 affinity resin
Excerpt: An affinity column was used substituted with a HaloTag-PDZ1+PDZ2 fusion protein (residues 61 to 249 of Mus musculus PSD-95) to purify heterologously expressed human cypin. Cypin was expressed in E. coli either as the free protein or fused to an N-terminal MBP, and purified from the bacterial supernate on the PDZ1-PDZ2 Domain-Affinity Resin. Both cypin and MBP-cypin were purified to >99% homogeneity.
For the experiment, full length cypin (guanine deaminase, Homo sapiens: AA 1-454) or MBP-cypin fusion proteins were expressed in BL21(DE3) E. coli cells. Single colonies of BL21(DE3) cells harboring pJExpress414 plasmids containing cypin or MBP-cypin genes were grown overnight at 37° C. in 5 ml of lysogeny broth (LB) (Cat. No. L9110, Teknova, Hollister, Calif.) supplemented with 100 ug/ml carbenicillin. […] Bacterial cell pellets (0.4-2.5 grams) containing cypin or MBP-cypin were resuspended in 5 ml/g cell paste of BugBuster Lysis Buffer [1× BugBuster (Cat. No. 70921, EMD Millipore, Billerica Mass.), 50 mM HEPES, 150 mM NaCl, 5 mM TCEP, 0.5 mM EDTA, 10 mM MgCl2, 2 mM PMSF, Complete Protease Inhibitor supplemented with 25 U/ml Benzonase and 10 U/ml ReadyLyse]. […] Eluted protein was analyzed on 4-12% bis-tris SDS-PAGE gels and proteins were detected by Gel Code Blue staining.

T1 sequence (Q62108 61-249): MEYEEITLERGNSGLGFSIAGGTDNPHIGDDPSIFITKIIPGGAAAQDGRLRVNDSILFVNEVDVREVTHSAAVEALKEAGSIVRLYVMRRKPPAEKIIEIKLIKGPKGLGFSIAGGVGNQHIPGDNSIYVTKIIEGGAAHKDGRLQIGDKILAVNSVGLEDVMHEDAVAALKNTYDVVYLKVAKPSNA

| Molecule | binding to solid support PDZ1 and PDZ2 domains |
| --- | --- |
| untagged cypin: full length cypin (guanine deaminase, Homo sapiens: AA 1-454) (protein) MCAAQMPPLAHIFRGTFVHSTWTCPMEVLRDHLLGVSDSGKIVFLEEASQQEKLAKEWCFKPCEIRELSHHEFFMPGLVDTHIHASQYSFAGSSIDLPLLEWLTKYTFPAEHRFQNIDFAEEVYTRVVRRTLKNGTTTACYFATIHTDSSLLLADITDKFGQRAFVGKVCMDLNDTFPEYKETTEESIKETERFVSEMLQKNYSRVKPIVTPRFSLSCSETLMGELGNIAKTRDLHIQSHISENRDEVEAVKNLYPSYKNYTSVYDKNNLLTNKTVMAHGCYLSAEELNVFHERGASIAHCPNSNLSLSSGFLNVLEVLKHEVKIGLGTDVAGGYSYSMLDAIRRAVMVSNILLINKVNEKSLTLKEVFRLATLGGSQALGLDGEIGNFEVGKEFDAILINPKASDSPIDLFYGDFFGDISEAVIQKFLYLGDDRNIEEVYVGGKQVVPFSSSV | able to bind with strong affinity |
| MBP-cypin: cypin fused to an N-terminal maltose binding protein (protein, left off: large carriers) MCAAQMPPLAHIFRGTFVHSTWTCPMEVLRDHLLGVSDSGKIVFLEEASQQEKLAKEWCFKPCEIRELSHHEFFMPGLVDTHIHASQYSFAGSSIDLPLLEWLTKYTFPAEHRFQNIDFAEEVYTRVVRRTLKNGTTTACYFATIHTDSSLLLADITDKFGQRAFVGKVCMDLNDTFPEYKETTEESIKETERFVSEMLQKNYSRVKPIVTPRFSLSCSETLMGELGNIAKTRDLHIQSHISENRDEVEAVKNLYPSYKNYTSVYDKNNLLTNKTVMAHGCYLSAEELNVFHERGASIAHCPNSNLSLSSGFLNVLEVLKHEVKIGLGTDVAGGYSYSMLDAIRRAVMVSNILLINKVNEKSLTLKEVFRLATLGGSQALGLDGEIGNFEVGKEFDAILINPKASDSPIDLFYGDFFGDISEAVIQKFLYLGDDRNIEEVYVGGKQVVPFSSSV | able to bind with strong affinity |
